These results are taken from US11891445 (ABL BIO, dated 2024).

In experiment [1] the target is T1, human B7-H3 expressed on a cell surface (human cancer cell lines) (human, UniProt Q5ZPR3 29-534).
T1 construct: whole, on cells; also called cell surface expression B7-H3 antigen
T1 sequence (looked up): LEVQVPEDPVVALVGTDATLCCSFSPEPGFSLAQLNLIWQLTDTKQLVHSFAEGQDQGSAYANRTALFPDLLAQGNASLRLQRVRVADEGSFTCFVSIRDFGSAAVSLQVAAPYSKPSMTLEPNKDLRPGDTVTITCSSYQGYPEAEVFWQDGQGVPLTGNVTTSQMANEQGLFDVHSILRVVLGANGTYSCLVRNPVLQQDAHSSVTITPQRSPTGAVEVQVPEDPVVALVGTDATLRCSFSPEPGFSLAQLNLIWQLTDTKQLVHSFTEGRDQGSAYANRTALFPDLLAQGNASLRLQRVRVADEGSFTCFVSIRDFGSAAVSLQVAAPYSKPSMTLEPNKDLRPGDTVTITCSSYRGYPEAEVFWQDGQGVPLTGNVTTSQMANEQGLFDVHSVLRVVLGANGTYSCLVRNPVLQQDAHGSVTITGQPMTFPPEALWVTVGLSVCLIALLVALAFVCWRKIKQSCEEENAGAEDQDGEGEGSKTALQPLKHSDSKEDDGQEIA
As to the kind of experiment: flow cytometry, JeKo-1 cells, antibody 10 ug/ml. The source says: (§1) Using various kinds of cancer cells A2780 (human ovarian cancer, ECACC, 93112519), SKOV-3 (human ovarian adenocarcinoma, ATCC® HTB-77™) OVCAR-3 (human ovarian adenocarcinoma, ATCC® HTB-161™), HCT116 (colon cancer cell, ThermoFIshcer Sci), HT29 (olorectal adenocarcinoma, ATCC® HTB-38™), DLD-1 (colorectal adenocarcinoma cell lines, ATCC® CCL-221™), Calu-6 (Non-small-cell lung carcinoma, ATCC® HTB-56™), HCC1954 (TNM stage IIA, grade 3, ductal carcinoma, ATCC® CRL-2338™), HCC1187 (TNM stage IIA, ATCC® CLC-2322™), renal cancer cell line 786-0 (renal cell adenocarcinoma, ATCC® CRL-1932™), A498 (kidney carcinoma, ATCC® HTB-44™), Panc-1 (pancreas epithelioid carcinoma, TCC CRL-1469™), NCI-N87 (gastric carcinoma, TCC CRL-5822™), HeLa (cervix adenocarcinoma, ATCC® CCL-2™), JeKo-1 (Lymphoma, ATCC® CRL-3006™) and FACSCalibur (BD Biosciences) device, the degree of binding of anti-B7-H3 antibody to B7-H3 was measured as follows.
(§2) After dissociating each cell line and washing it with PBS buffer, the number of cells was counted and adjusted to 2×10^5 cells/200 µl PBS, and then was treated with 10 µg/ml of B7-H3 monoclonal antibodies prepared in Example 2. Reaction was allowed at 4° C. for 1 hr. […] After the reaction, cells were washed in PBS and analyzed using the FACSCalibur device. […]

Experiment [2] deals with T1, human B7-H3 expressed on a cell surface …. Briefly: flow cytometry, Panc-1 cells, antibody 10 ug/ml.
From the text: as §1, §2

Experiment [3] has the same target. Briefly: flow cytometry, HT29 cells, antibody 10 ug/ml.
From the text: as §1, §2
(In general: In flow cytometry, cells or beads pass a laser one at a time.)

Experiment [4] has the same target. As to the kind of experiment: flow cytometry, MDA-MB-231 cells, antibody 10 ug/ml.
The target is the same in experiment [5]. Briefly: flow cytometry, A2780 cells, antibody 10 ug/ml.
From the text: as §1, §2

Experiment [6] has the same target. As to the kind of experiment: flow cytometry, DLD-1 cells, antibody 10 ug/ml.
From the text: as §1, §2

Experiment [7] shares this target. Briefly: flow cytometry, SKOV-3 cells, antibody 10 ug/ml.
From the text: as §1, §2

For experiment [8] the target is unchanged. Briefly: flow cytometry, HCT116 cells, antibody 10 ug/ml.
From the text: as §1, §2

Experiment [9] shares this target. Briefly: flow cytometry, MDA-MB-468 cells, antibody 10 ug/ml.
Experiment [10] shares this target. Briefly: flow cytometry, Calu-6 cells, antibody 10 ug/ml.
From the text: as §1, §2

Experiment [11] has the same target. As to the kind of experiment: flow cytometry, NCI-N87 cells, antibody 10 ug/ml.
From the text: as §1, §2

For experiment [12] the target is unchanged. Briefly: flow cytometry, A-498 cells, antibody 10 ug/ml.
From the text: as §1, §2

Experiment [13] shares this target. As to the kind of experiment: flow cytometry, HCC1187 cells, antibody 10 ug/ml.
From the text: as §1, §2

For experiment [14] the target is unchanged. As to the kind of experiment: flow cytometry, 786-0 cells, antibody 10 ug/ml.
From the text: as §1, §2

Experiment [15] shares this target. As to the kind of experiment: flow cytometry, Hela cells, antibody 10 ug/ml.
From the text: as §1, §2

For experiment [16] the target is unchanged. As to the kind of experiment: flow cytometry, HCC1954 cells, antibody 10 ug/ml.
From the text: as §1, §2

For experiment [17] the target is unchanged. As to the kind of experiment: flow cytometry, MCF-7 cells, antibody 10 ug/ml.
For experiment [18] the target is unchanged. As to the kind of experiment: flow cytometry, OVCAR-3 cells, antibody 10 ug/ml.
From the text: as §1, §2

B1: 84D (comparison group antibody, Enoblituzumab) (antibody, V domains shown)
VH: EVQLVESGGGLVQPGGSLRLSCAASGFTFSSFGMHWVRQAPGKGLEWVAYISSDSSAIYYADTVKGRFTISRDNAKNSLYLQMNSLRDEDTAVYYCGRGRENIYYGSRLDYWGQGTTVTVSS
VL: DIQLTQSPSFLSASVGDRVTITCKASQNVDTNVAWYQQKPGKAPKALIYSASYRYSGVPSRFSGSGSGTDFTLTISSLQPEDFATYYCQQYNNYPFTFGQGTKLEIK
Consider B1, for which the “MFI Ratio” value in [1] is 2.9 ratio; in experiment [2], 9 ratio; in [3], 8.9 ratio; in experiment [4] it was 5.4 ratio; in [5] it was 13.1 ratio; in experiment [6], 10.7 ratio. Further, the “MFI Ratio” value in [7] amounted to 11.9 ratio; in experiment [8] it was 5.9 ratio; in experiment [9] it was 8.6 ratio; in experiment [10], 23.2 ratio; in experiment [11], 12.8 ratio; in experiment [12], 24 ratio. Besides, the “MFI Ratio” value was 14.9 ratio in [13]; 20 ratio in experiment [14]; 23.5 ratio in experiment [15]; 14 ratio in experiment [16]; 78 ratio in [17]; 13.7 ratio in experiment [18].
